Measured values: the supplement of paper PMC9732359
± gives the uncertainty stated by the source.

Assay: protein stability index of a GFP-peptide fusion (yeast GPS) (PSI 1-4); higher = more stable; sorted into four equal gates, so the index is relative within each strain
Outline: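 Plasmids isolated from each sorting gate were PCR-amplified and Illumina-sequenced, and barcodes assigned the reads to strains. The gates, four of equal size, were set by GFP/Cherry fluorescence ratio on mid-log cultures in leucine-free medium. These cultures were yeast carrying a pooled library of tiled 17-residue yeast protein peptides fused downstream of GFP on a plasmid that also expresses Cherry. The protein stability index is the sum of every gate's read frequency times its gate number.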

Sequence	protein stability index (doa10∆)	protein stability index (pdr5∆)	protein stability index (san1∆)	protein stability index (ubr1∆)
TPLRDEVTDKNYYYLFD [PRP8]	2.98 ± 0.068	2.55 ± 0.049	3.03 ± 0.048	3.11 ± 0.059
TVDLALFGSPPFILEYD [YMR129W/POM152]	2.36 ± 0.044	2.49 ± 0.047	1.9 ± 0.087	2.7 ± 0.032
MNIKPVQKQTRAGQRTR [RPS2]	2.67 ± 0.1	2.81 ± 0.11	1.92 ± 0.089	2.58 ± 0.073
EDPVTVEYLTRYVAGVQ [PRE6]	2.39 ± 0.058	2.39 ± 0.07	2.54 ± 0.051	2.54 ± 0.067
RVVMMKYDRKVPSPTGE [RPO21]	2.69 ± 0.11	3.11 ± 0.069	2.69 ± 0.079	2.89 ± 0.043
EDPNSAAFDEVEYKLTF [DIS3]	1.18 ± 0.12	1.6 ± 0.29	1.17 ± 0.25	–
GETRMKMLNEFVKKTSE [SMC2]	3.28 ± 0.1	3 ± 0.092	2.91 ± 0.068	3.26 ± 0.082
SASHFEQYTKKINSWDQ [YJL041W/NSP1]	2.8 ± 0.076	3.06 ± 0.061	2.69 ± 0.083	3.02 ± 0.052
LTSSKSVIVSQFCAFDS [SIN4]	2 ± 0.066	2.14 ± 0.06	1.98 ± 0.1	1.64 ± 0.066
KGDLRRGFIKSEGSGSS [RPC53]	3.43 ± 0.14	3.37 ± 0.1	3.31 ± 0.07	3.48 ± 0.15
QRVCLRSDSYMLHKVLE [RPT6]	2.84 ± 0.084	2.95 ± 0.073	2.81 ± 0.067	2.84 ± 0.047
LSCEKITHYAVRGGNIE [RRI1]	2.37 ± 0.062	2.3 ± 0.078	2.51 ± 0.08	2.19 ± 0.047
ERKQIHEFKLIVGKKIQ [GRR1]	2.82 ± 0.045	2.58 ± 0.065	3.03 ± 0.06	3.13 ± 0.058
IEILVKDNECSSFEENN [RRI2]	2.86 ± 0.13	3.02 ± 0.13	2.89 ± 0.12	3.33 ± 0.12
LKELRIDNSPQAISYLH [GRR1]	2.17 ± 0.054	2.55 ± 0.051	2.08 ± 0.057	2.4 ± 0.034
ADVLVDRVVSSDSLDIA [SRP72]	1.95 ± 0.056	1.58 ± 0.072	1.42 ± 0.12	1.81 ± 0.081
AQHESFLRQKICLMTLI [RPN9]	1.26 ± 0.072	1.33 ± 0.082	1.15 ± 0.11	1.56 ± 0.064
HRDKNKMDMICRNINRK [DIS3]	2.32 ± 0.081	2.99 ± 0.17	2.41 ± 0.083	3.33 ± 0.12
ILDNTENYDDTELRQLF [DSN1]	3.15 ± 0.066	3.28 ± 0.068	3.37 ± 0.042	3.29 ± 0.05
FGELQFAFLNAMFFGNY [AAR2]	2.87 ± 0.069	2.61 ± 0.085	2.94 ± 0.067	3 ± 0.064
TEDQKVTTNINWRSFNA [SRP68]	3.13 ± 0.097	3.16 ± 0.074	3.1 ± 0.058	3.21 ± 0.049
SPAALKQLASLKKSEEI [YMR153W/NUP53]	2.2 ± 0.23	2.85 ± 0.13	2.65 ± 0.17	3.37 ± 0.15
QTLYTGDKVVVTIWYRA [SSN3]	1.22 ± 0.058	1.32 ± 0.069	1.25 ± 0.13	1.47 ± 0.047
FLESSKEIDPSQTTQLA [FAS2]	2.89 ± 0.11	3 ± 0.085	2.6 ± 0.084	2.42 ± 0.14
LLPFVKGNVGFVFTNEP [RPP0]	–	1.77 ± 0.26	–	1.84 ± 0.17
DDDINWQELARSTDEFN [RPT5]	3.18 ± 0.064	3.21 ± 0.065	3.11 ± 0.048	3.2 ± 0.043
